Test results as given in PMC12775136, “Mechanistic insights into recruitment and regulation of the RNA helicase UPF1 in replication-dependent histone mRNA decay” (Nature Communications, 2025).

T1: 3′hExo as used in surface plasmon resonance (human, UniProt Q8IV48 1-349)
T1 construct: human 3′hExo (ERI1); Likely 3′hExofl
T1 sequence (looked up): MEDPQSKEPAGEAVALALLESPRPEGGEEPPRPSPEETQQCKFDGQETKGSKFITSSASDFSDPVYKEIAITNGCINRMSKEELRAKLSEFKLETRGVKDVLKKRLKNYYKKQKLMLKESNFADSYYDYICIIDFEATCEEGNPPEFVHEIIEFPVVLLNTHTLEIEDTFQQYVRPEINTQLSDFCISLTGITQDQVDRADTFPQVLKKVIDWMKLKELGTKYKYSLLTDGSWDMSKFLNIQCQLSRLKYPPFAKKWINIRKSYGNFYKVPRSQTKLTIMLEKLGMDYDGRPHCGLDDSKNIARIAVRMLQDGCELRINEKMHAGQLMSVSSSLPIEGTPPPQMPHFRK

T2: 3′hExofl (human, UniProt Q8IV48 1-349)
T2 construct: human 3′hExo (ERI1), full length; Modified pET28a, N-terminal 6x His-tag followed by an HRV-3C site; also called ERI1; full-length 3′hExo; source: E. coli BL21 Star (DE3) pRARE, purified (Ni-NTA, heparin, SEC)
T2 sequence (looked up): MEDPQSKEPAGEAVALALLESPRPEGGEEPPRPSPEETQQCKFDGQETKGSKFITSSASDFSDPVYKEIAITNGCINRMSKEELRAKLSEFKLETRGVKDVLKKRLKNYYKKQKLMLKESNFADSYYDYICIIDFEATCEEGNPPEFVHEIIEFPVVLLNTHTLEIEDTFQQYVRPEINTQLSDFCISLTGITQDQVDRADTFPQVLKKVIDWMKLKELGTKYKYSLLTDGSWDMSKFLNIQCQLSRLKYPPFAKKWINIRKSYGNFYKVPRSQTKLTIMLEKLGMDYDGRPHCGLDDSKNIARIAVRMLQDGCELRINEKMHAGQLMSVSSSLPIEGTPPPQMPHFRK


Assays:
[1] = target: T1, 3′hExo as used in surface plasmon …; test: SPR; format not told in the text shown; details: both partners purified
3′hExofl = target: T2, 3′hExofl; test: NMR titration; 1H-15N HSQC of 15N-labelled UPF2-AL or UPF2-ALm with stepwise addition of unlabelled 3′hExo proteins; 298 K; 20 mM HEPES pH 7.0, 100 mM NaCl, 2 mM DTT; KD from twelve amide peaks, one-to-one binding isotherm; details: both partners purified

Kd [1]	Kd (3′hExofl)	Binder
~170 µM	–	UPF2 as used in surface plasmon resonance (domain or fragment, not fully specified; numbers in words are those of the source; also: modified acidic linker UPF2-ALm, further changes not given here) KKKTEGENLEEDEEEEEGGAETEEQSGNESEVNEPEEEEGSDNDDDEGEEEEEENTDYLTDSNKE
–	~200 µM	UPF2-ALm (residues 1024–1085) (domain or fragment, human, UniProt Q9HAU5 1024-1085, looked up, human UPF2, residues 1024–1085 of the acidic linker; source: E. coli, purified; 15N-labelled) TEGENLEEDEEEEEGGAETEEQSGNESEVNEPEEEEGSDNDDDEGEEEEEENTDYLTDSNKE
